Data on two molecules can be found in patent US20060030527A1 (TRANSTECH PHARMA, published 2006).

In one assay the target is T1, BSA (UniProt P02769 25-607).
T1 construct: also called BSA coating alone; BSA+wash
The assay can be described thus: ELISA on coated Maxisorb plates, absorbance at 405 nm. As to the method:
(§1) Known RAGE ligands were coated onto the surface of Maxisorb plates at a concentration of 5 micrograms per well. Plates were incubated at 4° C. overnight. Following ligand incubation, plates were aspirated and a blocking buffer of 1% BSA in 50 mM imidizole buffer (pH 7.2) was added to the plates for 1 hour at room temperature. The plates were then aspirated and/or washed with wash buffer (20 mM Imidizole, 150 mM NaCl, 0.05% Tween-20, 5 mM CaCl₂ and 5 mM MgCl₂, pH 7.2). […] The fusion protein was added at increasing dilutions of the initial sample. The RAGE fusion protein was allowed to incubate with the immobilized ligand at 37° C. for one hour after which the plate was washed and assayed for binding of the fusion protein. Binding was detected by the addition of an immunodetection complex containing a monoclonal mouse anti-human IgG1 diluted 1:11,000 to a final assay concentration (FAC) of 21 ng/100 μL, a biotinylated goat anti-mouse IgG diluted 1:500, to a FAC of […], and an avidin-linked alkaline phosphatase. […] Binding of the complex to the immobilized fusion protein was quantified by measuring conversion of PNPP to para-nitrophenol (PNP) which was measured spectrophotometrically at 405 nm.
For orientation: In an ELISA, binding on a coated surface is turned into a signal by an enzyme label.

The target of assay [1] is T2, Amyloid Beta (1-40) from Biosource (UniProt P05067 672-711).
T2 construct: domain: Amyloid Beta (1-40); Immobilised on Maxisorb plates; amyloid beta 1-40 is a fragment of it; also called Abeta; A-beta
The experiment in a line: ELISA, ligand coated on Maxisorb plate, fusion protein detected through anti-human IgG1 complex. As to the method: as §1

The target of assay [2] is T2, Amyloid Beta (1-40) from Biosource. The assay can be described thus: ELISA, immobilised ligand, dilutions of a 1.082 mg/mL solution. The method, then: as §1

T1 sequence (P02769 25-607 limits assumed): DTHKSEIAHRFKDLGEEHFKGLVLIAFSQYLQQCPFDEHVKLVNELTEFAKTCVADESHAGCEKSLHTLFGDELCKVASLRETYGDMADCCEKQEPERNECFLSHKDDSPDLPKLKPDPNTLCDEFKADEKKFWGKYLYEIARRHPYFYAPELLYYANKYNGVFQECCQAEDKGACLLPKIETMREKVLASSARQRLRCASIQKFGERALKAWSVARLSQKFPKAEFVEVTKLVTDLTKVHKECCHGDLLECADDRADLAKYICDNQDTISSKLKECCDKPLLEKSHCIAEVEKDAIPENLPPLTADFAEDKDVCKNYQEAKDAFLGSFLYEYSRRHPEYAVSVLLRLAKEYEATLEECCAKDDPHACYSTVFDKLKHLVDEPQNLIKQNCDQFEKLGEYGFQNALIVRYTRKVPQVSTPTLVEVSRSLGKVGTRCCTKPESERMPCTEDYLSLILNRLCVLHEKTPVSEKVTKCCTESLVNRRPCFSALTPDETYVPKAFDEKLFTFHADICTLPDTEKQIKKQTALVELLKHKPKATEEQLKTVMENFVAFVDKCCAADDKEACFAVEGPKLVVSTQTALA
T2 sequence (P05067 672-711 limits assumed): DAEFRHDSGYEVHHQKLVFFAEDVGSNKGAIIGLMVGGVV

B1: RAGE fusion protein TTP-4000 (Fc fusion)
chain: AQNITARIGEPLVLKCKGAPKKPPQRLEWKLNTGRTEAWKVLSPQGGGPWDSVARVLPNGSLFLPAVGIQDEGIFRCQAMNRNGKETKSNYRVRVYQIPGKPEIVDSASELTAGVPNKVGTCVSEGSYPAGTLSWHLDGKPLVPNEKGVSVKEQTRRHPETGLFTLQSELMVTPARGGDPRPTFSCSFSPGLPRHRALRTAPIQPRVWEPVPLEEVQLVVEPEGGAVAPPSVFLFPPKPKDTLMISRTPEVTCVVVDVSHEDPEVKFNWYVDGVEVHNAKTKPREEQYNSTYRVVSVLTVLHQDWLNGKEYKCKVSNKALPAPIEKTISKAKGQPREPQVYTLPPSRDELTKNQVSLTCLVKGFYPSDIAVEWESNGQPENNYKTTPPVLDSDGSFFLYSKLTVDKSRWQQGNVFSCSVMHEALHNHYTQKSLSLSPGK
notes: No immunoglobulin hinge; also called TT4; four domain RAGE fusion protein
Regarding B1, the binding result was “no binding” with BSA and “binds” in assay [1].

B2: RAGE fusion protein TTP-3000 (Fc fusion)
chain: AQNITARIGEPLVLKCKGAPKKPPQRLEWKLNTGRTEAWKVLSPQGGGPWDSVARVLPNGSLFLPAVGIQDEGIFRCQAMNRNGKETKSNYRVRVYQIPGKPEIVDSASELTAGPSVFLFPPKPKDTLMISRTPEVTCVVVDVSHEDPEVKFNWYVDGVEVHNAKTKPREEQYNSTYRVVSVLTVLHQDWLNGKEYKCKVSNKALPAPIEKTISKAKGQPREPQVYTLPPSRDELTKNQVSLTCLVKGFYPSDIAVEWESNGQPENNYKTTPPVLDSDGSFFLYSKLTVDKSRWQQGNVFSCSVMHEALHNHYTQKSLSLSPGK
notes: also called TT3; three domain RAGE fusion protein
Take B2: the binding result is on record as “no binding” with BSA and “binds” in assay [2].
